Data: publication PMC5698441 (Nature Communications, 2017)

Target: T1, biotinylated CaM (UniProt P0DP23 1-149, biotin (EZ link NHS Biotin, two-fold molar excess))
T1 construct: calmodulin, biotin-labelled; also called biotin-CaM; biotin-labeled CaM; source: purified CaM labelled with EZ link NHS Biotin, separated from free biotin by SEC
Assay: AlphaScreen or HTRF; competition: WT or mutant 20-mer peptides AKAP79 77-96 added to biotin-CaM (10 nM) and GST-AKAP79 (1-153); emission relative to untreated; peptide concentration not given
Conditions: both partners purified

B1: 20-mer AKAP79 (77–96) V86A (peptide)
peptide: GAWASLKRLATRRKRSESSK
notes: AKAP79 residues 77-96 with V86A; also called V86A peptide; source: synthetic peptide (Sigma PEPscreen)
  alphascreen emission relative to untreated samples: 0.17 ± 0.04 relative to untreated
